Reference: the nanobody polyreactivity screen of Harvey et al. (2022)

test: yeast display, Sf9 membrane polyspecificity reagent, FACS + sequencing; frameworks hold sequencing errors
Method in brief: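 Galactose induction of a Saccharomyces cerevisiae BJ5465 synthetic nanobody display library ran 36–48 hours. The cells were then stained for 1 hour at 4 °C with 10% biotinylated, detergent-solubilized Sf9 membrane reagent, pulled down on streptavidin microbeads and FACS-sorted into low and high (top ~1%) gates on expression and reagent-binding fluorescence. Labels for polyreactivity follow the gate of origin.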

**Q.** With “QVQLVESGGGLVQAGGSLRLSCAASGNIFSDNAMGWYRQAPGKERELVATITSSGVSTYYADSVKGRFTISRDNAKNTVYLQMNSLKPEDTAVYYGAVQGFRYHSREYDYWGQGTQVTVSS” as the sequence, how does the “polyreactivity (PSR sort gate)” value read?
**A.** low polyreactivity

**Q.** With “QVQLVESGGGLVQAGGSLRLSCAASGNIFSDYAMGWYRPAPGKERELVAAISSGGNTNYADSVKGRFTISRDNAKNTVYLQMNSLKPEDTAVYYCAADPGYYVSAYDYWGQGTQVTVSS” as the sequence, how does the “polyreactivity (PSR sort gate)” value read?
**A.** low polyreactivity

**Q.** For “QVQLVESGGGLVQAGGSLRLSCAASGNIFSFNDVGGSRQAPGNEREWVAAITSSDSTNYADSVKGRFTISRDNAKNTVYLQMNSLKPEDTAVYYCATEILTAARDTVVYQFYLGYYYWGQGTQVTVSS”, which “polyreactivity (PSR sort gate)” value is on record?
**A.** low polyreactivity

**Q.** Which “polyreactivity (PSR sort gate)” value does the source give for “QVQLVESGGGLVQAGGSLRLSCAASGNIFSFYAMGWYRQAPGKERELVAAINWSGGDTYYADSVKGRFTISRDNAKNTVYLQMNSLKPEDTAVYYCAAEYYYQYYPGGYDYWGQGTQVTVSS” here?
**A.** high polyreactivity

**Q.** With “QVQLVESGGGLVQAGGSLRLSCAASGNIFSRYAMGWYRKAPGKERELVAAISKSGGSTYYADSVKGRFTISRDNAKNTVYLQMNSLKPEDSAVYYCAAYSFFLGYPEFDYWGQGTQVTVSS” as the sequence, how does the “polyreactivity (PSR sort gate)” value read?
**A.** high polyreactivity

**Q.** For “QVQLVESGGGLVQAGGSLRLSCAASGNIFSSNAMGWYRQAPGKERELVAAITRSGGSTYYADSVKGRFTISRDNSKKTVYLLMNSLKPEDTAFYYCAARHYPRNSWGYDYWGQGSQVTVSS”, which “polyreactivity (PSR sort gate)” value is on record?
**A.** high polyreactivity

**Q.** For “QVQLVESGGGLVQAGGSLRLSCAASGNIFSVYAMGWYRQAPGKERELVAAISSSGGRTYYADSVKGRFTISRENSKNTVYLQMNSLKPEDTAVYYCAARSYTGQFGYWGQGTQVTVSS”, which “polyreactivity (PSR sort gate)” value is on record?
**A.** high polyreactivity

**Q.** Which “polyreactivity (PSR sort gate)” value does the source give for “QVQLVESGGGLVQAGGSLRLSCAASGNIFSYYAMGWYRQAPGKERELVAAIYTGGSTYYADSVKGRFTISRDNAKNTVYLQMNSLKPEDTAVYYCAARGLKLRQDYDYWGQGTQVTVSS” here?
**A.** low polyreactivity

**Q.** Which “polyreactivity (PSR sort gate)” value does the source give for “QVQLVESGGGLVQAGGSLRLSCAASGNIFTFNAMGWYRQAPGKERELVAAIRSGGSTNYADSVKGRFTISRDNAKNTVYLQMNSLIPEDTAVYYCAAKRYVQGYVYRFGYWGQGTQVTVSS” here?
**A.** high polyreactivity

**Q.** Which “polyreactivity (PSR sort gate)” value does the source give for “QVQLVESGGGLVQAGGSLRLSCAASGNIFTGNAMGWYRQAPGKERELVAAISSGGGSTYYADSVKGRFTISRDNAKNTVYLQMNSLKPEDTAVYYCAASRVRYSYGYPYYYWGQGTQVTVSS” here?
**A.** high polyreactivity

**Q.** For “QVQLVESGGGLVQAGGSLRLSCAASGNIFTYYVMGWYRQAPGKESELVAAISRRGGSTYYADSVKGRFTISRDNAKNTVYLQMNSLNPEDTAVYYCADRWYKWSTFSGWSRYDYWGQGTQVTVSS”, which “polyreactivity (PSR sort gate)” value is on record?
**A.** high polyreactivity

**Q.** For “QVQLVESGGGLVQAGGSLRLSCAASGNIFVAYAMGWYRQAPGKERELVAAITYNGGRTYYADSVKGRFTISRDNAKNTVYLQMNSLKPEDTAVYYCAARGYNPYGRKVGYWGQGTQVTVSS”, which “polyreactivity (PSR sort gate)” value is on record?
**A.** high polyreactivity

**Q.** With “QVQLVESGGGLVQAGGSLRLSCAASGNIFVGNAMGWYRQAPGKERELVAAIRRSGGTTYYADSVKGRFTISRDIAKNTVYIQMNSLKPEDTAVYYSAASRPYQGDYWGQGTQVTVSS” as the sequence, how does the “polyreactivity (PSR sort gate)” value read?
**A.** low polyreactivity

**Q.** For “QVQLVESGGGLVQAGGSLRLSCAASGNIFVNYAMGWYRQAPGKERELVASINYNGGNTYYADSVKGRFTISRDNAKNTVYLQMNSLKPEDTAVYYCAADLPESPESYYDTDDYWGQGTQVTVSS”, which “polyreactivity (PSR sort gate)” value is on record?
**A.** low polyreactivity

**Q.** Which “polyreactivity (PSR sort gate)” value does the source give for “QVQLVESGGGLVQAGGSLRLSCAASGNIFVPSAMGWYRQEPGKERELVAAINVGGSTNYADSLNGRFTNSRDNPKNTVYLQMNSVKPEDTAVNYFGAVWYFLSLWYDYWGHGTQVTVSS” here?
**A.** high polyreactivity

**Q.** For “QVQLVESGGGLVQAGGSLRLSCAASGNIFYAYAMGWYRQAPGKEREFVAAITKNGGSTYYADSVKGRFTISRDNAKNTVYLQMISLKPEYTAVYYCTAGGVYPRFTFLEQGYEMDYWGQGTQVTVSS”, which “polyreactivity (PSR sort gate)” value is on record?
**A.** low polyreactivity

**Q.** Which “polyreactivity (PSR sort gate)” value does the source give for “QVQLVESGGGLVQAGGSLRLSCAASGNIFYAYDMGWYRQAPGKERELVAAITNGDSTDYADSVKGRFTISRDNAKNTVYLQMNSLKPEDTAVYYCNAYYLPEPWALGGSQYDYWGQGTQVTVSS” here?
**A.** low polyreactivity

**Q.** Which “polyreactivity (PSR sort gate)” value does the source give for “QVQLVESGGGLVQAGGSLRLSCAASGNIFYINAMGWYRQAPGKERELVAAISSGGRTNYADSVKGRFTISRDNAKNTVYLQMNSLNPEDTEVYYCNADGWYAWRYYAPGGYDYWGQGTQVTVSS” here?
**A.** low polyreactivity

**Q.** With “QVQLVESGGGLVQAGGSLRLSCAASGNIFYNVMGWYRQAPGKERELVAVISSGDSTYYADSVKGRFTISRDNAKNTVYLQMNSLKPEDTAVYYCNAQWITSAYLLYSYDYWWGYDYWGQGTQVTVSS” as the sequence, how does the “polyreactivity (PSR sort gate)” value read?
**A.** high polyreactivity

**Q.** For “QVQLVESGGGLVQAGGSLRLSCAASGNIFYRYAMGWYRQAPGKERELVAAISGNSGNTYYADSVKGRFTISRDNAKNSVYLQMNSLKPEDTAVYYCAARPYYSYAGSGGYWGQGTQVTLSS”, which “polyreactivity (PSR sort gate)” value is on record?
**A.** high polyreactivity

**Q.** Which “polyreactivity (PSR sort gate)” value does the source give for “QVQLVESGGGLVQAGGSLRLSCAASGNIFYVYVMGGYRQAPGKERELVASITSGASTYYADSVKGRFTISRDNAKNTVYLQMNSLKPDDTAVYYCAAEALGGAGDYSTLYIYDYWGQGTQVTVSS” here?
**A.** low polyreactivity

**Q.** With “QVQLVESGGGLVQAGGSLRLSCAASGNIFYYNAMGWYRQAPGKVRELVAAITRSAGSTYYADSVKGRFPISRDNAKNTVYLQMNSLKPEDTAVYYCAATYSDLGYRYYSLGQGTQVTVSS” as the sequence, how does the “polyreactivity (PSR sort gate)” value read?
**A.** high polyreactivity

**Q.** With “QVQLVESGGGLVQAGGSLRLSCAASGNIIIPYAMGWYRQAPGNEREFVAVMSTRGGSTYYADSVKGRFTISRDNAQNTVYLQMNSLKPEDTAVYYCAARYPYRYDYWGQGTQVTVSS” as the sequence, how does the “polyreactivity (PSR sort gate)” value read?
**A.** high polyreactivity

**Q.** With “QVQLVESGGGLVQAGGSLRLSCAASGNIITTYAMGWYRQAPGKERELVAAISRSGGRTNYADSVKGRFTISRDNAKNTVYLQMNSLKPEDTAVYYCAADGVPGRAVDYEYWGQGTQVTVSS” as the sequence, how does the “polyreactivity (PSR sort gate)” value read?
**A.** high polyreactivity

**Q.** With “QVQLVESGGGLVQAGGSLRLSCAASGNILEGYTMGWYRQAPGKERELVATISGRGGSTYYADSVKGRFTISRDYAKNTVYLQMHSLKPEDTAVYYCNALPWALYDSTSIYYYWGQGTQVTVSS” as the sequence, how does the “polyreactivity (PSR sort gate)” value read?
**A.** low polyreactivity

**Q.** For “QVQLVESGGGLVQAGGSLRLSCAASGNILEGYTMGWYRQAPGQERELVATISGRGGSTYYADSVKGRFTMSRDNAKNTVYLQMHSLKPEDTAVYYCNALPWALYESTSIYYYWGQGTQVTVSS”, which “polyreactivity (PSR sort gate)” value is on record?
**A.** low polyreactivity

**Q.** With “QVQLVESGGGLVQAGGSLRLSCAASGNILGSYAMGWYRQAPWKQRELVAAITWSGGTTYYADSVKGRFTISCDNAKNTVYLQMNSLKPEDTAVYYCAVEIVLTRFDYWGQGTQVTVSS” as the sequence, how does the “polyreactivity (PSR sort gate)” value read?
**A.** low polyreactivity

**Q.** With “QVQLVESGGGLVQAGGSLRLSCAASGNILGTYAMGWYRQAPGKERELVAAISSSVGSTYYADSVKGRFSISRDNAKKTVYLQMNSLKPEDTAVYYCAARNYQFYEKWGYLYDYWGQGTQVTVSS” as the sequence, how does the “polyreactivity (PSR sort gate)” value read?
**A.** low polyreactivity

**Q.** For “QVQLVESGGGLVQAGGSLRLSCAASGNILRFNAMGWYRQAPGKERELVAAISRSGGTTYYADSVKGRFTISRDNAKNTVYLQMNSLKPEDTAVYYCAARSRYGESPGYYWGQGTQVTVSS”, which “polyreactivity (PSR sort gate)” value is on record?
**A.** high polyreactivity

**Q.** For “QVQLVESGGGLVQAGGSLRLSCAASGNISLPYTMGWYRQAPGKERELVAAISWDGGRTYYADSVKGRFTISRDNAKNTDYLQMNSLKPEDTAVYYCGARFFLVTLDYWGQGTQVTVSS”, which “polyreactivity (PSR sort gate)” value is on record?
**A.** low polyreactivity

**Q.** With “QVQLVESGGGLVQAGGSLRLSCAASGNMFYRNGMGWYRQAPGKERQFVAAISRRGGSTYYADSVKGRFTISRDNAKNTVYLQMNSLKPEDTAVYYCATRYWPTNKGEYWGQGTQVTVSS” as the sequence, how does the “polyreactivity (PSR sort gate)” value read?
**A.** high polyreactivity

**Q.** Which “polyreactivity (PSR sort gate)” value does the source give for “QVQLVESGGGLVQAGGSLRLSCAASGNNFSRYSMGCSRPAPGKERELVASISRGGRTNYADSVKGRFTISLDNAKNTVYLQMNSLNPEDTAVYYCALGGNGYWHQSGPYPYNYWGQGTQVTVSS” here?
**A.** high polyreactivity

**Q.** With “QVQLVESGGGLVQAGGSLRLSCAASGNNLSVYTMGWYRQAPGKERELVATITYSGDRTYADSVKGRFTISRDNAKNTVYLQMNSLKPEDTAVYYCAKRNFGSYIRRGHWGQGTQVTVSS” as the sequence, how does the “polyreactivity (PSR sort gate)” value read?
**A.** low polyreactivity

**Q.** With “QVQLVESGGGLVQAGGSLRLSCAASGNSFREYTMGWCRQAPGKERELVAGISGSGGRTYYADSVKGRFTISRDNAKNTVFLQMNSLKPEDTAVYYCNDRWYYGIGYNYWGQGTQVTVSS” as the sequence, how does the “polyreactivity (PSR sort gate)” value read?
**A.** high polyreactivity

**Q.** With “QVQLVESGGGLVQAGGSLRLSCAASGNTFAGNAMGWYRHAPRKERELVAAISRSGVTTRYGDSVKGRFTISRDNAKNTVYLQMNSLKPEDTAVYYCNAVPRLRQTREYWGQGTQVTVSS” as the sequence, how does the “polyreactivity (PSR sort gate)” value read?
**A.** high polyreactivity

**Q.** Which “polyreactivity (PSR sort gate)” value does the source give for “QVQLVESGGGLVQAGGSLRLSCAASGNTFAGNAMGWYRQAPGKERELVAAISRSGVTTRYADSVKGRFTISRDNAKNTVYLQMNSLKPEDTAVYYCNADPRLRQTRDYWGQGTQVTVSS” here?
**A.** high polyreactivity

**Q.** For “QVQLVESGGGLVQAGGSLRLSCAASGNTFASNAMGWYRQAPGKERELVATISTSGTTYYADSVKGRFTISRDNAKNTVYLQMNSLKPEDTAVYYCARTFKSRRGSRGYYWGQGTQVTVSS”, which “polyreactivity (PSR sort gate)” value is on record?
**A.** high polyreactivity

**Q.** Which “polyreactivity (PSR sort gate)” value does the source give for “QVQLVESGGGLVQAGGSLRLSCAASGNTFATYAMGWYRQAPGKERELVAGITVDGASTNYADSVKGRFTISRDNAKNTVYLQMNSLKPEDTAVYYCNADYTTQVYDSTWPGDFGYWGQGTQVTVSS” here?
**A.** high polyreactivity

**Q.** Which “polyreactivity (PSR sort gate)” value does the source give for “QVQLVESGGGLVQAGGSLRLSCAASGNTFAVNAMGWYRQAPGKERELVAAISKRGGRTYYADSVKGRFTISRDNAKNTVYLQMNSLKPEDTAVYYCNTGYIFSSFYSSKYGYWGQGTQVTVSS” here?
**A.** high polyreactivity

**Q.** For “QVQLVESGGGLVQAGGSLRLSCAASGNTFDGYDMGWYRQAPGKERELVAAITNTGASTYYADSVKGRFTISRDNAKNTVYLQMNSLKPEDTAVYYCIAQDSYPEDRHGMSYWGQGTQVTVSS”, which “polyreactivity (PSR sort gate)” value is on record?
**A.** low polyreactivity
